Data taken from the supplement of paper PMC9170038.

System: K4 kissing-loop RNA reporter
Assay: apparent KD of K4 kissing-loop reporter; higher = weaker reporter binding
Details: Eterna round: R107
Method: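 RNA-MaP round R107: designed RNA switches with theophylline, tryptophan, arginine or FMN aptamers are transcribed on-chip within common flanks. They are titrated with a labelled K4 kissing-loop RNA reporter in RNA-MaP buffer (100 mM Tris pH 7.5, 80 mM KCl, 4 mM MgCl2), without ligand or with the indicated ligand. Median apparent KD per design.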

[1] = input ligand: theophylline 20 uM
[2] = input ligand: tryptophan 2.4 mM
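Note: bound reporter read as fluorescence of individual clusters on recovered sequencing chips by microscopy, with normalized cluster intensities fitted with a binding model.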

| Sequence | apparent KD of K4 kissing-loop reporter (input ligand: FMN 200 uM) | apparent KD of K4 kissing-loop reporter (input ligand: arginine 13.2 mM) | apparent KD of K4 kissing-loop reporter (input ligand: none) | apparent KD of K4 kissing-loop reporter [1] | apparent KD of K4 kissing-loop reporter [2] |
| --- | --- | --- | --- | --- | --- |
| GGUGUUGUUUGUGCUGUUUUCUUCGUUUCUCGAGGACCGGUACGGCCGCCACUCGAGUGAUGUUUGGGUAGCGAUGUUUGUUAGU [Bdazzled - #3 - Exc. Tryptophan A] | 473 nM | 287 nM | 373 nM | 360 nM | 470 nM |
| GGUUCCUCAGUGAUGUUGAGGUGACCUCGGCAGGAUAUAGGCAUUACUAGAAGGGCCAAAUGAACCCUGUCCAGCGGCACAGGGA [Arleorbile] | 147 nM | 213 nM | 331 nM | 298 nM | 252 nM |
| GGUUGAAGCACCCGGAGUGAUGUUCCGGAUACCAGCAAACCAACUUGCCCUUGGCAGCCGUAUAGCGUCCGGUGGGCCGAGCAUA [Beisadi] | 101 nM | 90.3 nM | 97 nM | 99.3 nM | 90 nM |
| GGUUUUAACCGCAGUGAUGUUGCGUUGAAACGAGGACCGGUACGGCCGCCACUCGAAAAGAAGCGGCCAAAUUAAAAUCGUAAAG [Exclusion Tryptophan A GF 23] | 129 nM | 162 nM | 144 nM | 164 nM | 114 nM |
| GUAAUCUUGCUCGAGUGAUGUUCGAGCGAAGGAGCGCGAGAAAUCGCAGGUAGGUCGCGCUCGAAAUAUGAGCGAACAAUUAUUA [Arg A Ex t2b] | 222 nM | 197 nM | 220 nM | 219 nM | 230 nM |
| GUACAUUGGAAACAAGAACAAAUAACCGAAGGAGCGCGUGAAAACGCAGGUAGGUCGCGGAAGCAGUGAUGUUGCAUUAGAGAUC [Same State Arginine A GF 16] | 79.2 nM | 103 nM | 61.1 nM | 106 nM | 60.3 nM |
| GUAUCGCUAGGAGGAUAUUUCAAUUUGACUCUUUGAGUUUUUACGGAGUGAUGUUCCGUUUUACGGAAAGAAGGCCUAGUGAUAC [FMN B 15] | 121 nM | 138 nM | 162 nM | 159 nM | 161 nM |
| GUAUGUGGAAACACGUACUUAUAUCCUAAGCAGGAUAUGCGGAAACGCAGAAGGGCUACCAACGAGUUUACCCAGUGAUGUUGGG [Ex FMN A 14] | 275 nM | 260 nM | 320 nM | 288 nM | 296 nM |
| GUCCAACCUGGAGGAUAUCUGCUGUCCAGUGAUGUUGGACACCUUAGUAAAGGCCGGGUAGCCCGCAGAGAAGGCCGGAGUUGCC [Isateron] | 265 nM | 354 nM | 429 nM | 390 nM | 329 nM |
| GUCCCAGUGAUGUUGGUAGGCGGGCGGGAUACCAGCGAAGACUCACGCCCUUGGCAGCCCACAUAUCCCGCGUAGGGAUUAGCCC [Same State - Theophylline A (Freestyle 22)] | 652 nM | 437 nM | 656 nM | 638 nM | 457 nM |
| GUCCGGAAGGCGGCUUCACGACCGUGGUGGGAGGAUAUGUCUAAGGACAGAAGGCCCAGUGAUGUUGGGCUUUAGGAGAGCCAUA [Ragele] | 310 nM | 128 nM | 143 nM | 116 nM | 118 nM |
| GUCUGCGUCUCGGCCGCCACUCACUAGUGAUGUUAGUAAGGAGCGACUAGCGCAGUCCUGAAGAUGAGGACCGGGAGACGCAGGA [Exclusion Tryptophan B GF5] | 141 nM | 110 nM | 119 nM | 91 nM | 358 nM |
| GUGAAGGAGCUGCAGUGAUGUUGCAGAAACUAGGAUAUCAGGAAACUGAGAAGGAGUCAACUCCUUCACCUAAAUACUGCAGAAA [KL-SSFMN-A23] | 104 nM | 130 nM | 158 nM | 157 nM | 147 nM |
| GUGAGGAUCCGAAGGAGCGUCCGCAAUCCAGUGAUGUUGGGUGUUGGUUAUAUUUAACGAGGACAGGUAGGUCGCGGAUUUUCAA [Same State Arginie B GF 22] | 202 nM | 126 nM | 172 nM | 193 nM | 159 nM |
| GUGCGGCUAGUGAUGUUGGUUGCGUGGGAAGGAGCGCAGAAACAUGCAGGUAGGUCGCCCACACCUCUGAAAGGAGGUUAAUUCA [Diusdige] | 200 nM | 172 nM | 133 nM | 171 nM | 248 nM |
| GUGGAAUUAUGAAAGUGGUUUUAUAAGGAAGGAGCGGCCGAAAGGCCAGGUAGGUCGCCUAUUGACAGUGAUGUUGUUAUAUGGA [#13] | 105 nM | 180 nM | 103 nM | 168 nM | 75 nM |
| GUUACGCAUGGAAGGAGCGCACUCCGAUUGGGCGACGCAGUGAUGUUGUGGUUCGUUCGAAUGCAGGUAGGUCGCCAUGUGUAAC [Ex Arginine B K4 21] | 186 nM | 172 nM | 176 nM | 141 nM | 192 nM |
| GUUACGCAUGGAAGGAGCGCUCUCAGGCUUAAUAACACAGUGAUGUUGUGAAUUUGCCUAAAGCAGGUAGGUCGCCAUGUGUAAC [Ex Arginine B K4 9] | 426 nM | 400 nM | 440 nM | 423 nM | 392 nM |
| GUUGUAUACUGAAGGAGCGAGUAGUGGAAACAUAAACUCAUUGCGAGUGAUGUUCGCGGUACUCAGGUAGGUCGCGGUAAUCGUA [Exclusion Arginine B Gf 11] | 820 nM | 328 nM | 800 nM | 485 nM | 403 nM |
| UAAAAUAAAUAAUAGAGAGCGUUACUCGAAGGAGCGACGAAUUCGUCAGGUAGGUCGCGAGUGAUGUUCGCAAAUACGCUCUCAU [AK2 Exc Arginine A] | 838 nM | 655 nM | 850 nM | 696 nM | 682 nM |
| UAAAUAAUAAAACGAGUGAUGUUCGACGAUACCAGCCUCGAUAGAGGCCCUUGGCAGCGUAAAUGAUCACAAAGCCAAGGUAUAA [#01 K4 Theophylline A Exclusion] | 165 nM | 183 nM | 159 nM | 199 nM | 138 nM |
